The domain aggregation screens of Martell et al. (2025)
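Further: 20 min heating vs room temperature control held 20 min.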

Assay: soluble fraction after stress (log2 fold change); higher = more stays soluble; pooled small domains, quantitative proteomics
Settings: stress: 75 degC
In the case of “HMAISSADRIVAELRTWISGASPGTQLPSSRTLAARYGASPVTVQKALHTLAGMGLVEARPGAGTFVRRQS”, the “soluble fraction (log2)” value is reported as -1.42. With “HMAITVPEGATLSDAAVLLKQAGAVRSADAFLTRAKVFGGSTPIKAGEFVIPVQASNKDILAILQGGK” the “soluble fraction (log2)” value was 0.0742. For “HMAKIATTVYEQIRTAILNGELSNSERLVEEDLAVSMGISRTPVREALRRLAAEGLVDVSPNRGARVAE”, the “soluble fraction (log2)” value was -0.27. In the case of “HMAKINFTSDAIDIGMVTRNDIEMLSFYQNVLGLTKDMEIPFPGLGVVNKLSFGSGFIKILVL”, the “soluble fraction (log2)” value is reported as 0.0804. With “HMAKLGITQREQEVLQLLVTGKTYKEIAAELFISLPTVKTHVSNIYSKAKVRNRLELSNLINYI” the “soluble fraction (log2)” value was -3.37. With “HMAKNYYEILGLKSDATLPEIKKAFKKLSKKFHPDKNRDDDGYFESMFKSINEAYQVLIDEDKRATFDSHH” the “soluble fraction (log2)” value was -0.758. For “HMAKPAALLFEHRFDGMAEMRFRENIVKNDDGSYTYDEYFLSMLDRAGLEKIVQENMEVWIAYAKQ”, the “soluble fraction (log2)” value was -2.1. With “HMAKPVKSPLPGSVIKVAVKVGQQIKRGDLLLTLESMKMENSILAEKDGVVKNIHVQAGQSVMQDDLLLDI” the “soluble fraction (log2)” value was -0.88. With “HMAKPVNISAEPYHYDPTRFRVTFELPRLSDQPRKRIRKVAPAGLDREQALAWAKRLEREVLHELLR” the “soluble fraction (log2)” value was -1.08. In the case of “HMAKVSVNIILKDGVDQTTFVNDVTSNTEVDLKNQLISLPQMVVLSVEEDYINTLKSHSSISILELDE”, the “soluble fraction (log2)” value is reported as -0.296. In the case of “HMALALDDLFDRYEQLQDQSLGDKTEEGQELRAMIRAYIEQEGLSVRVTRSTTNRELLELIEQEMEG”, the “soluble fraction (log2)” value is reported as -0.306. In the case of “HMALENTDLYAHLRLSHTASVPEIQAALSARVKHMPLQTWLLARKWLLHPRLRERYDGMWSVRFGA”, the “soluble fraction (log2)” value is reported as -2.87. For “HMALGRTGEVYLPIPAGRAGHGKISITLQGALREVDAVTAGEALPRGTSVRVVDVAGNGVLLVEK”, the “soluble fraction (log2)” value was -0.206. In the case of “HMALHDTLSYEEYLDLGLNGKADSAEKRELVAHALHLGRPNAKTLYKRLNMLQLNRKDVAALLEQ”, the “soluble fraction (log2)” value is reported as 0.097. With “HMALHLPTTTINGRQYYYFKSKEKITVYGLSKRLGLTRQEIVEHNPSAVDGIKRGSTLYFPVDEFAD” the “soluble fraction (log2)” value was -2.12. In the case of “HMALLKRQDEILMYLYTQNKWITGNELAQLFHVSLRTIRNDISFINTEKSNSVLSNRNKGYHIAKDFVYNE”, the “soluble fraction (log2)” value is reported as -1.26. In the case of “HMALPDSEKRQWLVDEVNERGLKLPDDVLEYLFARVGRSQAHLVDVIEKLDFESLAQSRKLTIPFVREVLK”, the “soluble fraction (log2)” value is reported as -0.225. For “HMALPRYFFRTRENGAVLFKTPVNNHQNRLEMHQIAAINIRNETVKPLGDTVLTDEETELIADWMRERKTV”, the “soluble fraction (log2)” value was -0.782. For “HMALSVRNRMSDLLRMLGDGEFHRFENLFSLEEGRHGIVVTFLAMLELAKEQLVEISQGESLAPIYLKSLA”, the “soluble fraction (log2)” value was -1.05. In the case of “HMAMDVKEVLLPGVGLRYEFDNSDGDRIGVIAKRSGDFEVVRYTAADRDAAQPMFRLTDEEADALAQILGA”, the “soluble fraction (log2)” value is reported as 0.224. In the case of “HMAMDYYAIGQRIRKFRKAHDWSQEELAEKVEISTTHMSHIETGSTKLSLPVLVSLANVLDVRTDDLLF”, the “soluble fraction (log2)” value is reported as -3.81. With “HMAMKFQDIVRQKRKELGLTQEQAARRLGVSPAAVSKWESGQSLPDTPLFAPLARLLHTDLNTLLSFE” the “soluble fraction (log2)” value was -1.21. With “HMAMTQNVDLAGRIVFNEKKEEVFNFGKHKGRSVAEVFEKEPSYYDWMLKGDFPAETKQVLTALRLRGLS” the “soluble fraction (log2)” value was -0.186. With “HMAMTRTEYLNQLKHYLKRLPHTDYEEAMDYFKEYFEEAGPENEAQVIQDLGNPKEAAYEILSQLL” the “soluble fraction (log2)” value was -0.0595. In the case of “HMANDNFPLKLGSKGPRVLQLKTMLIQSLSNDALPKGRSSDAFDSELEALLSRNNLPTVIDETNFRVLTK”, the “soluble fraction (log2)” value is reported as -0.0514. In the case of “HMANFGSILRNLRISRDITQSELAAKLGVSRSTVGMYETGAREPDFEAMEAIADTFNVDMDYLVGRSQ”, the “soluble fraction (log2)” value is reported as -0.258. In the case of “HMANLAQITKTNAVALALKDVGAYNSEDLMKFIDLDKVVLGEDGKPQLEDTINSLKESSPYLFQ”, the “soluble fraction (log2)” value is reported as 0.134. In the case of “HMANMTAKQINMFGDKLSRDKDFQSYYIAKSGDSREQYAQDIKGKLLDPFYVNAWMPYLEKIGFVPS”, the “soluble fraction (log2)” value is reported as 0.0935. In the case of “HMANPEFAGYINGKPYFGPTHQHRGVKMLGATHTRNPHPLVWDSIAESLANYDSRFRWSGGQIL”, the “soluble fraction (log2)” value is reported as -0.853. In the case of “HMANTAKVNVDTANLRETADENSKILKQLSLNDNLEVVEETGDWYKVKNSNVTGYVRKDLVTVEN”, the “soluble fraction (log2)” value is reported as 0.31. In the case of “HMANTLDPMDLKQIISLHLDGFSNRKIGATLGISRNTVNTYMRLFSVSDYALKELLTLDNATLDKLFPS”, the “soluble fraction (log2)” value is reported as -2.06. In the case of “HMANYYEILGVKHDATEAEIKAAYKQAAKSAHPDAGGSNEKMQEVNAAWEVLGNAQKRAEYDARMA”, the “soluble fraction (log2)” value is reported as 0.173. For “HMAPAGGITRQDLFAWGLMGGEGSREKRQQLKKSLGLPSHLGTSGFLDALNLIATRDQVEALLHK”, the “soluble fraction (log2)” value was -0.564. For “HMAPAILTVQVKPDKIREIIGPGGKMIRMIQSETNTRVEVDDSGLVKIAAVSKEEGEAALKMVSDITME”, the “soluble fraction (log2)” value was 0.331. With “HMAPDAPDGFVHRWIRAEMLGQEDKSNVHRRMQEGYELVRADEYPDSDLPVAEGRYAGIIGVGGLLLARF” the “soluble fraction (log2)” value was -0.206. In the case of “HMAPDDTAVWSAFIGWFRTAPDGPNPLGAYAAKLGEEGLDAAEVGRRMTVIVRLFAEKPEGAEVFYDRTYA”, the “soluble fraction (log2)” value is reported as -2.66. In the case of “HMAPDYYALLGVPRNATTAEVRKAFRGKALEQHPDRGGDEESFRLLSKAYDVLSDSERRKYYDRTG”, the “soluble fraction (log2)” value is reported as -0.0151. For “HMAPEKLVHELVGLSLRAGNLDLLAATLSAHKTVLSKESTAEYVKAGLAIEPNHLPLRVLAEQDLGWS”, the “soluble fraction (log2)” value was -1.17. For “HMAPFVIQQGQDVRLISKGPGFAVSNDGKALTNAAEGQLARARTANGQTVSGIARQGGIIEIA”, the “soluble fraction (log2)” value was -0.0321. In the case of “HMAPGIGDSKYFSHIYEMKHIDTIIDNDKGDRLIEHFEIQDTPFIFTKHWTSAFGFSKRQQEIITDYLSYF”, the “soluble fraction (log2)” value is reported as 0.12. In the case of “HMAPGVHVEALLPYTAGSLVSQIREYGNVDAVEYRDTGILLQADVDERLAAQIMDQALEDPV”, the “soluble fraction (log2)” value is reported as 0.0715. In the case of “HMAPLADQIVDLLKEHDGFLPLHDNSSPEDIRATVGTSKKAFKQAIGGLFREKRIVIGPTGIRLIS”, the “soluble fraction (log2)” value is reported as -0.694. For “HMAPLATIHVSSLSQKPFYLYGTFEDRRGNHLFFLEQIMGENKSIPVAMPSSAINPKIHASLTPPKG”, the “soluble fraction (log2)” value was -0.494. With “HMAPLQDENGDLTFSYNGKTYTVNVNSEEDRNSFAEDFNKENGKKFSWFKERAGLQHYVFYDTEM” the “soluble fraction (log2)” value was -0.00699. With “HMAPLVTLEADGNGAVKLSNLAGHSIREVAGALGGAGLSLIPVGSGTSWKQNPAPGTVLHSGDTVTVYF” the “soluble fraction (log2)” value was 0.177. With “HMAPPIQQQVESLMNSFAKIGVTVPMLESRLQHAMSAVTANELVMLRKIGASIRDGFATVAEQFPA” the “soluble fraction (log2)” value was -1.14. In the case of “HMAPPPPEGYIHRWIRESVMGFDDKKNLSARIREGFELVRAEEYPDYEAPTVMDGKHAGVIANGGLLLARF”, the “soluble fraction (log2)” value is reported as -0.201. In the case of “HMAPQQARAAKTRVKLLDAAATVVRRDGIQAMTLARVAEEAGVSKGGLLHHFGSKEELVTGMLEQ”, the “soluble fraction (log2)” value is reported as -0.21. In the case of “HMAPRASDALTERELDVLRVVADGASVAEAAEMLVVSRETVKKHLGNIYAKLGVHSKMQAVALLREEGV”, the “soluble fraction (log2)” value is reported as -0.788. For “HMAPRKNIRLLRAAQDKAAAEGDHETVDAIRGQIAALIETLPVQYREEYLLQEKGRENGLKLAIENAAK”, the “soluble fraction (log2)” value was 0.663. With “HMAPSLQISLKQAIITAQQQHPGSKALNADFDGARGTPRYVIETLLPTGELRELTIDAQSGQVMEDHPDR” the “soluble fraction (log2)” value was 0.234. With “HMAPSPEGAAILRESVESVARDQVDRVALTMTARGYTTAEIAAALMVDRSTISRRLYAMRDRYHAQQDNAQ” the “soluble fraction (log2)” value was -0.526. With “HMAPSVNEVAWAQKIIDAHAEAAAAGKGLVVVDGKLIENLHVEEAKQLLSLSDAIAKNDASNG” the “soluble fraction (log2)” value was 0.0645. For “HMAPTGTDRQTPHTRDELYLVLSGTGTFVNGDARHPFGPGDALFVPAGAEHRFEDFSDDFRTWVVFYGAEG”, the “soluble fraction (log2)” value was -0.163. For “HMAPVVAILTRQLPLPQAQQLAGQTALVRVVKGGPGNEAELEFAGQNIQVKLPPGRQLTAGEMVTVAFALS”, the “soluble fraction (log2)” value was -0.762. In the case of “HMAQASEPMLALIRLKWWEEQINSPVKGDSLPLLSQLNSHISAGYLSRSQVTSLIQRWQDYA”, the “soluble fraction (log2)” value is reported as -0.983. In the case of “HMAQFNELLFELRQDRKMTQEDLAKVLFVTSGTISNYENGVHLPDIEKLISLADFFGVTTDYLLG”, the “soluble fraction (log2)” value is reported as -0.189. With “HMAQLKYEQIKSYLQAEAVKPESATRMPTVRELMRRFNVSLVTVNRALSELEHAKVIVRRQGAGIVAAQ” the “soluble fraction (log2)” value was -0.662. With “HMAQLPADMSRVKSADVSDAQLREFVQKAQASGQTETQLFREFSRRGMPTNEINILRSRMVGLQNN” the “soluble fraction (log2)” value was 0.152. For “HMAQLPPTATARATSDVSGLTASAALRTLLEQGFVPQIHGSGKVSRQHPPAGTLLEPGSTIQLFLEPS”, the “soluble fraction (log2)” value was 0.261. With “HMAQLSDMLTYLRKRKGLSQQELANTLKISRSAIGMYETGKREPDLETLEVFADFYNVDMNTLTGKA” the “soluble fraction (log2)” value was -0.245. For “HMAQNILPGQKNAIKSLATSAGFSQQELDSYLSQNYGKTLNNLSQKEGASLISGLQDGSIKKP”, the “soluble fraction (log2)” value was 0.988. With “HMAQPIPSGSDIREAREAAGMNLRDFARMVGGGAIGTWSHYETGKPIRVKSISPEVWQRVRDFILQHGK” the “soluble fraction (log2)” value was -0.676. For “HMAQRAADEARTHEILGLLRQARAALDHGGTARAARLRASIAEKLPAAPALPAWFARQLEQVDSQLAELQD”, the “soluble fraction (log2)” value was -0.768. For “HMAQRFDLGDKLNPQSSEFEYLGTSSRTGVSTYRYKNVPTQLFFGRQIGDIVVGVRRGMITLTIYNL”, the “soluble fraction (log2)” value was 0.0868. In the case of “HMAQSTALVNLAQAEINKRGLTQTEVQARLSEEGINVNSISPAEYPKYQKQILSILDQMQKEKQLSKEV”, the “soluble fraction (log2)” value is reported as 0.287. With “HMAQVDAVQQVLQAFPALRSGQSQHLSQVVAALRQRGILTVGTKTTAWFAQWASVFQLLPLQVPNRIRYQS” the “soluble fraction (log2)” value was 0.0672. For “HMARGRETILLVEDEPAVRGLVHATLRLHGYTVLEARHGIEALLTSTKFVGPIHLLLTDVVMPQMS”, the “soluble fraction (log2)” value was 0.0984. In the case of “HMARHIHFEVHVQQAGRWSIHAQFGAGQREKAIEEAKKIEKTPGFDSVKVVKETYDSDLGNHQDTTIYRGP”, the “soluble fraction (log2)” value is reported as -1.18.
